Reference: article PMC6151454, “The Recognition of Calmodulin to the Target Sequence of Calcineurin—A Novel Binding Mode” (Molecules : A Journal of Synthetic Chemistry and Natural …, 2017)

Molecular target: Calmodulin (CaM), chicken, recombinant (chicken, UniProt P62149 2-149)
Test: circular dichroism titration; various amounts of CaNp added to a fixed amount of CaM; far-UV CD; 100 mM KCl, 2 mM CaCl2, pH 6.5
Conditions: both partners purified

B1: CaM-binding domain (target peptide) of calcineurin A, residues 391-414 (CaNp) (peptide)
peptide: ARKEVIRNKIRAIGKMARVFSVLR
notes: CaM target domain of the calcineurin catalytic subunit (CaN-A) α-isoform, residue 391-414; 13C,15N-labelled or unlabelled in the NMR samples; also called target peptide of CaN; not shown: CaM with factor Xa cleavage site IEGR (CaM-CaNp hybrid molecule), N-terminal, cleaved
stoichiometry N: 1
